Reference: patent US20240294635A1

Experiments:
[1] = target: CD47 on the red cell surface (Homo sapiens (Human)) (UniProt Q08722); assay: flow cytometry on fixed red cells, antibody 1 µg/mL
[2] = target: CD47 on the red cell surface (Homo sapiens (Human)) (UniProt Q08722); assay: flow cytometry on fixed red cells, antibody 10 µg/mL

MFI [1]: 449 MFI
MFI [2]: 484 MFI
Substance: IgG4 (antibody)
